Source: patent US20110212094A1 (AbbVie / Abbott, published 2011)

Tests used:
[1] = biological target: T1, Recombinant Human TNF-α/TNFSF1A (human, UniProt P01375 77-233); assay: cell-based or functional assay
[2] = biological target: T1, Recombinant Human TNF-α/TNFSF1A; assay: Biacore SPR
Method: (§1) The BIACORE assay (Biacore, Inc, Piscataway, N.J.) determines the affinity of antibodies or DVD-Ig with kinetic measurements of on-rate and off-rate constants. Binding of antibodies or DVD-Ig to a target antigen (for example, a purified recombinant target antigen) is determined by surface plasmon resonance-based measurements with a Biacore® 1000 or 3000 instrument (Biacore® AB, Uppsala, Sweden) using running HBS-EP (10 mM HEPES [pH 7.4], 150 mM NaCl, 3 mM EDTA, and 0.005% surfactant P20) at 25° C. All chemicals are obtained from Biacore® AB (Uppsala, Sweden) or otherwise from a different source as described in the text. For example, approximately 5000 RU of goat anti-mouse IgG, (Fcγ), fragment specific polyclonal antibody (Pierce Biotechnology Inc, Rockford, Ill.) diluted in 10 mM sodium acetate (pH 4.5) is directly immobilized across a CM5 research grade biosensor chip using a standard amine coupling kit according to manufacturer's instructions and procedures at 25 μg/ml. Unreacted moieties on the biosensor surface are blocked with ethanolamine. Modified carboxymethyl dextran surface in flowcell 2 and 4 is used as a reaction surface. Unmodified carboxymethyl dextran without goat anti-mouse IgG in flow cell 1 and 3 is used as the reference surface. For kinetic analysis, rate equations derived from the 1:1 Langmuir binding model are fitted simultaneously to association and dissociation phases of all eight injections (using global fit analysis) with the use of Biaevaluation 4.0.1 software. Purified antibodies or DVD-Ig are diluted in HEPES-buffered saline for capture across goat anti-mouse IgG specific reaction surfaces. Antibodies or DVD-Ig to be captured as a ligand (25 μg/ml) are injected over reaction matrices at a flow rate of 5 μl/min. The association and dissociation rate constants, kₘ (M⁻¹s⁻¹) and koff (s⁻¹) are determined under a continuous flow rate of 25 μl/min. Rate constants are derived by making kinetic binding measurements at different antigen concentrations ranging from 10-200 nM. The equilibrium dissociation constant (M) of the reaction between antibodies or DVD-Igs and the target antigen is then calculated from the kinetic rate constants by the following formula: KD=koff/kₒₙ. Binding is recorded as a function of time and kinetic rate constants are calculated.

Recombinant Human SOST = biological target: T2, Recombinant Human SOST (human, UniProt Q9BQB4 24-213); assay: Biacore SPR
T2 construct: R&D reagent in Biacore; also called sclerostin; Human sclerostin (Abbott PR-1261069)
T2 sequence (looked up): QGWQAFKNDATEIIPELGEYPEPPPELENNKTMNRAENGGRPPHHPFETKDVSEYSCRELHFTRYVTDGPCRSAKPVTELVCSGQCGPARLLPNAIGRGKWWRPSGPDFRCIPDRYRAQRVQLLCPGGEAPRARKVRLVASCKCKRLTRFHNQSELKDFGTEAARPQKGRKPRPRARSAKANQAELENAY
Method: as §1

T1 sequence (P01375 77-233 limits assumed): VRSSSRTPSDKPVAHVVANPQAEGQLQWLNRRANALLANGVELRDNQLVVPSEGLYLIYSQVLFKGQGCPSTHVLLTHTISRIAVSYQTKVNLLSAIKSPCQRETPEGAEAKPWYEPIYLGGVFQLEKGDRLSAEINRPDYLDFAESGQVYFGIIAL

| Binder | TNFα Neutralization Assay EC50 nM (L929 cells) [1] [nM] | Kd [2] [nM] | koff [2] [s⁻¹] | kon [2] [M⁻¹ s⁻¹] | C-terminal VD TNFα Neutralization Assay EC50 nM (L929 cells) [1] [nM] | Kd (Recombinant Human SOST) [nM] | koff (Recombinant Human SOST) [s⁻¹] | kon (Recombinant Human SOST) [M⁻¹ s⁻¹] | N-terminal VD TNFα Neutralization Assay EC50 nM (L929 cells) [1] [nM] |
| --- | --- | --- | --- | --- | --- | --- | --- | --- | --- |
| AB213 (antibody, human IgG1, kappa, V domains shown, Parent anti-TNF antibody; also called AB213VH) VH: QVQLKESGPGLVAPSQSLSITCTVSGFSLTDYGVNWVRQPPGKGLEWLGMIWGDGSTDYDSTLKSRLSISKDNSKSQIFLKMNSLQTDDTARYYCAREWHHGPVAYWGQGTLVTVSA VL: DIVMTQSHKFMSTTVGDRVSITCKASQAVSSAVAWYQQKPGQSPKLLIYWASTRHTGVPDRFTGSGSVTDFTLTIHNLQAEDLALYYCQQHYSTPFTFGSGTKLEIKR | 0.189 | 0.0335 | 0.000108 | 3.23e+06 |  |  |  |  |  |
| AB215 (antibody, human IgG1, kappa, V domains shown, Parent anti-TNF antibody; also called AB215VH) VH: QVQLVESGGGVVQPGRSLRLSCAASGFTFSSYAMHWVRQAPGNGLEWVAFMSYDGSNKYAKDSVKGRFTISRDNSKNTLYLQMNSLRAEDTAVYYCARDRGIAAGGNYYYYGMDVWGQGTTVTVSS VL: EIVLTQSPATLSLSPGERATLSCRASQSVYSYLAWYQQKPGQAPRLLIYDASNRATGIPARFSGSGSGTDFTLTISSLEPEDFAVYYCQQRSNWPPFTFGPGTKVDIKR | 1.21 | 0.157 | 0.000272 | 1.74e+06 |  |  |  |  |  |
| DVD1249 (bispecific antibody, human IgG1, kappa, constant regions from vectors V1/V2; also called DVD1249H; DVD1249L) heavy: not shown light: DVQMIQSPSSLSASLGDIVTMTCQASQGTSINLNWFQQKPGKAPKLLIYGSSNLEDGVPSRFSGSRYGTDFTLTISSLEDEDLATYFCLQHSYLPYTFGGGTKLEIKRTVAAPDIQMTQSPSSLSASVGDRVTITCRASQGIRIDLGWYQQKPGKAPKRLIYAASTLQSGVPSRFSGSGSGTEFIFTISSLQPEDFASYYCLQHKSYPLTFGGGTKVEIKRTVAAPSVFIFPPSDEQLKSGTASVVCLLNNFYPREAKVQWKVDNALQSGNSQESVTEQDSKDSTYSLSSTLTLSKADYEKHKVYACEVTHQGLSSPVTKSFNRGEC |  | 0.389 | 0.000253 | 649000 | 5.42 | 0.017 | 0.000159 | 9.42e+06 |  |
| AB214 (antibody, human IgG1, kappa, V domains shown, Parent anti-TNF antibody; also called AB214VH) VH: EVKLEESGGGLVQPGGSMKLSCVASGFIFSNHWMNWVRQSPEKGLEWVAEIRSKSINSATHYAESVKGRFTISRDDSKSAVYLQMTDLRTEDTGVYYCSRNYYGSTYDYWGQGTTLTVSS VL: DILLTQSPAILSVSPGERVSFSCRASQFVGSSIHWYQQRTNGSPRLLIKYASESMSGIPSRFSGSGSGTDFTLSINTVESEDIADYYCQESHSWPFTFGSGTNLEVKR | 0.04 | 0.107 | 0.000291 | 2.73e+06 |  |  |  |  |  |
| DVD1229 (bispecific antibody, human IgG1, kappa, constant regions from vectors V1/V2; also called DVD1229H; DVD1229L) heavy: not shown light: DVQMIQSPSSLSASLGDIVTMTCQASQGTSINLNWFQQKPGKAPKLLIYGSSNLEDGVPSRFSGSRYGTDFTLTISSLEDEDLATYFCLQHSYLPYTFGGGTKLEIKRTVAAPDILLTQSPAILSVSPGERVSFSCRASQFVGSSIHWYQQRTNGSPRLLIKYASESMSGIPSRFSGSGSGTDFTLSINTVESEDIADYYCQESHSWPFTFGSGTNLEVKRTVAAPSVFIFPPSDEQLKSGTASVVCLLNNFYPREAKVQWKVDNALQSGNSQESVTEQDSKDSTYSLSSTLTLSKADYEKHKVYACEVTHQGLSSPVTKSFNRGEC |  | 3.6 | 0.000398 | 110000 |  | 0.0226 | 0.00019 | 8.43e+06 |  |
| AB217 (antibody, human IgG1, kappa, V domains shown, Parent anti-TNF antibody; also called AB217VH) VH: QVQLVESGGGVVQPGRSLRLSCAASGFTFSSYDMHWVRQAPGKGLEWVAVIWSDGSIKYYADSVKGRFTISRDNSKNTLYLQMNSLRAEDTAVYYCAREVESAMGGFYYNGMDVWGQGTTVTVSS VL: DIQMTQSPSSLSASVGDRVTITCRASQGIRIDLGWYQQKPGKAPKRLIYAASTLQSGVPSRFSGSGSGTEFIFTISSLQPEDFASYYCLQHKSYPLTFGGGTKVEIKR | 0.212 | 0.0272 | 5.04e-05 | 1.85e+06 |  |  |  |  |  |
| AB218 (antibody, human IgG1, kappa, V domains shown, Parent anti-TNF antibody; also called AB218VH) VH: EVQLVESGGGLIQPGGSLRLSCAASGFTVSRNYMSWVRQAPGKGLEWVSVIYSGDRTYYADSVKGRFTISRDNSKNTLYLQMNSLRAEDTAVYYCARGEGGFDYWGQGTLVTVSS VL: EIVMTQSPATLSVSPGERATLSCRASQSVSSNLAWYQQKPGQAPRLLIHGASIRATGLPARFSGSGSGTEFTLTISSLQSEDFAVYYCQQYNYWWTFGQGTKVEIKR | 0.0345 | 0.0288 | 5.15e-05 | 1.79e+06 |  |  |  |  |  |
| DVD1230 (bispecific antibody, human IgG1, kappa, constant regions from vectors V1/V2; also called DVD1230H; DVD1230L) heavy: not shown light: EIVLTQSPATLSLSPGERATLSCRASQSVYSYLAWYQQKPGQAPRLLIYDASNRATGIPARFSGSGSGTDFTLTISSLEPEDFAVYYCQQRSNWPPFTFGPGTKVDIKRTVAAPDVQMIQSPSSLSASLGDIVTMTCQASQGTSINLNWFQQKPGKAPKLLIYGSSNLEDGVPSRFSGSRYGTDFTLTISSLEDEDLATYFCLQHSYLPYTFGGGTKLEIKRTVAAPSVFIFPPSDEQLKSGTASVVCLLNNFYPREAKVQWKVDNALQSGNSQESVTEQDSKDSTYSLSSTLTLSKADYEKHKVYACEVTHQGLSSPVTKSFNRGEC |  | 0.132 | 0.000223 | 1.69e+06 |  | 4.74 | 0.00029 | 61100 | 1.05 |
| DVD1227 (bispecific antibody, human IgG1, kappa, constant regions from vectors V1/V2; also called DVD1227H; DVD1227L) heavy: not shown light: DVQMIQSPSSLSASLGDIVTMTCQASQGTSINLNWFQQKPGKAPKLLIYGSSNLEDGVPSRFSGSRYGTDFTLTISSLEDEDLATYFCLQHSYLPYTFGGGTKLEIKRTVAAPDIVMTQSHKFMSTTVGDRVSITCKASQAVSSAVAWYQQKPGQSPKLLIYWASTRHTGVPDRFTGSGSVTDFTLTIHNLQAEDLALYYCQQHYSTPFTFGSGTKLEIKRTVAAPSVFIFPPSDEQLKSGTASVVCLLNNFYPREAKVQWKVDNALQSGNSQESVTEQDSKDSTYSLSSTLTLSKADYEKHKVYACEVTHQGLSSPVTKSFNRGEC |  | 0.381 | 4.64e-05 | 122000 | 1.23 | 0.03 | 0.000211 | 7.05e+06 |  |
| DVD1256 (bispecific antibody, human IgG1, kappa, constant regions from vectors V1/V2; also called DVD1256H; DVD1256L) heavy: not shown light: EIVMTQSPATLSVSPGERATLSCRASQSVSSNLAWYQQKPGQAPRLLIHGASIRATGLPARFSGSGSGTEFTLTISSLQSEDFAVYYCQQYNYWWTFGQGTKVEIKRTVAAPDVQMIQSPSSLSASLGDIVTMTCQASQGTSINLNWFQQKPGKAPKLLIYGSSNLEDGVPSRFSGSRYGTDFTLTISSLEDEDLATYFCLQHSYLPYTFGGGTKLEIKRTVAAPSVFIFPPSDEQLKSGTASVVCLLNNFYPREAKVQWKVDNALQSGNSQESVTEQDSKDSTYSLSSTLTLSKADYEKHKVYACEVTHQGLSSPVTKSFNRGEC |  | 0.0347 | 8.55e-05 | 2.46e+06 |  | 1.59 | 0.000365 | 230000 |  |
| AB022 (antibody, V domains shown, Parent anti-SOST antibody; also called SOST; AB022VH) VH: EVQLQQSGPELVTPGASVKISCKASGYTFTDHYMSWVKQSHGKSLEWIGDINPYSGETTYNQKFKGTATLTVDKSSSIAYMEIRGLTSEDSAVYYCARDDYDASPFAYWGQGTLVTVSA VL: DVQMIQSPSSLSASLGDIVTMTCQASQGTSINLNWFQQKPGKAPKLLIYGSSNLEDGVPSRFSGSRYGTDFTLTISSLEDEDLATYFCLQHSYLPYTFGGGTKLEIKR |  |  |  |  |  | 0.0408 | 0.000396 | 9.68e+06 |  |
| DVD1248 (bispecific antibody, human IgG1, kappa, constant regions from vectors V1/V2; also called DVD1248H; DVD1248L) heavy: not shown light: DIQMTQSPSSLSASVGDRVTITCRASQGIRIDLGWYQQKPGKAPKRLIYAASTLQSGVPSRFSGSGSGTEFIFTISSLQPEDFASYYCLQHKSYPLTFGGGTKVEIKRTVAAPDVQMIQSPSSLSASLGDIVTMTCQASQGTSINLNWFQQKPGKAPKLLIYGSSNLEDGVPSRFSGSRYGTDFTLTISSLEDEDLATYFCLQHSYLPYTFGGGTKLEIKRTVAAPSVFIFPPSDEQLKSGTASVVCLLNNFYPREAKVQWKVDNALQSGNSQESVTEQDSKDSTYSLSSTLTLSKADYEKHKVYACEVTHQGLSSPVTKSFNRGEC |  | 0.021 | 5.94e-05 | 2.83e+06 |  | 0.0546 | 0.00039 | 7.14e+06 | 0.006 |
